The record followed here is article PMC4872126, “Mechanistic insight into cadmium-induced inactivation of the Bloom protein”.

For one series, the target named is RecQ E. coli (Escherichia coli, UniProt P15043 1-609). In words: fluorescence anisotropy; IC50 of CdCl2 inhibiting binding (not protein affinity); 200 nM protein, 5 nM DNA; 50 mM Tris-HCl pH 8.0, 50 mM NaCl, 1 mM DTT, 25 C; 200 nM protein, 5 nM 3'-fluorescein DNA. The conditions noted are these: protein: recombinant; label: 3'-fluorescein.
Chain of RecQ E. coli (P15043 whole entry): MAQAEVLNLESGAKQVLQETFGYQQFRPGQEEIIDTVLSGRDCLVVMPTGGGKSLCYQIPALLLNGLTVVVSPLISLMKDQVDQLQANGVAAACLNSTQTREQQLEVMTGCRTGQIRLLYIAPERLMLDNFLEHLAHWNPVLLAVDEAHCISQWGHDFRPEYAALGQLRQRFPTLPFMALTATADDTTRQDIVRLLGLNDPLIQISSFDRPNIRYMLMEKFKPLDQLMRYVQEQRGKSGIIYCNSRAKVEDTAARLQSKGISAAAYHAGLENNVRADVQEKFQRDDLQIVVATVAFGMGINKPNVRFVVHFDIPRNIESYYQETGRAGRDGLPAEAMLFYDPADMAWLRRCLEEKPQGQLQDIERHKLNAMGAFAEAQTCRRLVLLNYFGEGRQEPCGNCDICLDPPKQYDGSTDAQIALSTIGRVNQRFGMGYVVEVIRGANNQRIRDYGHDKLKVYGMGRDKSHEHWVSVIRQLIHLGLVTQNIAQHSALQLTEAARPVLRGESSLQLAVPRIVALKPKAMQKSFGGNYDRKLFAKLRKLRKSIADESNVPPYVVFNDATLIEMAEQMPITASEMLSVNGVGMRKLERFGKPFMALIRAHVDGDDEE
The target in series [1] is T1, BLM642-1290 (human, UniProt P54132 642-1290). The description is as above. The conditions noted are these: protein: recombinant; label: 3'-fluorescein.
T1 sequence (P54132 642-1290): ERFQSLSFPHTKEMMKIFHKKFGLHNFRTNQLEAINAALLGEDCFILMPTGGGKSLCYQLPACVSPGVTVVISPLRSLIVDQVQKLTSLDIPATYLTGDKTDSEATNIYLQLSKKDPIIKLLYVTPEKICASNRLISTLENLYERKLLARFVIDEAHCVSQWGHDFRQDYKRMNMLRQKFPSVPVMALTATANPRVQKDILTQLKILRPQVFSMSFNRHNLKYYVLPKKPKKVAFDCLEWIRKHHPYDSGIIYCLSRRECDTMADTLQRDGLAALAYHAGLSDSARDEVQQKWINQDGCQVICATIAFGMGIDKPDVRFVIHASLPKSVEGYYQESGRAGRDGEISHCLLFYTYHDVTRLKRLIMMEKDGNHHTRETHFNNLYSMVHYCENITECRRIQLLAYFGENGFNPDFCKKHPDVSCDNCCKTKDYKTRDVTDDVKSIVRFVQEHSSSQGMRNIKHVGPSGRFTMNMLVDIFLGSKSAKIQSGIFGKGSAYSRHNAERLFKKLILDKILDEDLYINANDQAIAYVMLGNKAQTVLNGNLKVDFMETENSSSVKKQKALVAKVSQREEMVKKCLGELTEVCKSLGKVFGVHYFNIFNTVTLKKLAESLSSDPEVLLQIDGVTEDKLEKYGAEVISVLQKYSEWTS
For a further series, the target named is BLM full-length (human, UniProt P54132 1-1417). The series is described as above. The conditions noted are these: protein: recombinant; (Ni-NTA purified); label: 3'-fluorescein.
Chain of BLM full-length (P54132 whole entry): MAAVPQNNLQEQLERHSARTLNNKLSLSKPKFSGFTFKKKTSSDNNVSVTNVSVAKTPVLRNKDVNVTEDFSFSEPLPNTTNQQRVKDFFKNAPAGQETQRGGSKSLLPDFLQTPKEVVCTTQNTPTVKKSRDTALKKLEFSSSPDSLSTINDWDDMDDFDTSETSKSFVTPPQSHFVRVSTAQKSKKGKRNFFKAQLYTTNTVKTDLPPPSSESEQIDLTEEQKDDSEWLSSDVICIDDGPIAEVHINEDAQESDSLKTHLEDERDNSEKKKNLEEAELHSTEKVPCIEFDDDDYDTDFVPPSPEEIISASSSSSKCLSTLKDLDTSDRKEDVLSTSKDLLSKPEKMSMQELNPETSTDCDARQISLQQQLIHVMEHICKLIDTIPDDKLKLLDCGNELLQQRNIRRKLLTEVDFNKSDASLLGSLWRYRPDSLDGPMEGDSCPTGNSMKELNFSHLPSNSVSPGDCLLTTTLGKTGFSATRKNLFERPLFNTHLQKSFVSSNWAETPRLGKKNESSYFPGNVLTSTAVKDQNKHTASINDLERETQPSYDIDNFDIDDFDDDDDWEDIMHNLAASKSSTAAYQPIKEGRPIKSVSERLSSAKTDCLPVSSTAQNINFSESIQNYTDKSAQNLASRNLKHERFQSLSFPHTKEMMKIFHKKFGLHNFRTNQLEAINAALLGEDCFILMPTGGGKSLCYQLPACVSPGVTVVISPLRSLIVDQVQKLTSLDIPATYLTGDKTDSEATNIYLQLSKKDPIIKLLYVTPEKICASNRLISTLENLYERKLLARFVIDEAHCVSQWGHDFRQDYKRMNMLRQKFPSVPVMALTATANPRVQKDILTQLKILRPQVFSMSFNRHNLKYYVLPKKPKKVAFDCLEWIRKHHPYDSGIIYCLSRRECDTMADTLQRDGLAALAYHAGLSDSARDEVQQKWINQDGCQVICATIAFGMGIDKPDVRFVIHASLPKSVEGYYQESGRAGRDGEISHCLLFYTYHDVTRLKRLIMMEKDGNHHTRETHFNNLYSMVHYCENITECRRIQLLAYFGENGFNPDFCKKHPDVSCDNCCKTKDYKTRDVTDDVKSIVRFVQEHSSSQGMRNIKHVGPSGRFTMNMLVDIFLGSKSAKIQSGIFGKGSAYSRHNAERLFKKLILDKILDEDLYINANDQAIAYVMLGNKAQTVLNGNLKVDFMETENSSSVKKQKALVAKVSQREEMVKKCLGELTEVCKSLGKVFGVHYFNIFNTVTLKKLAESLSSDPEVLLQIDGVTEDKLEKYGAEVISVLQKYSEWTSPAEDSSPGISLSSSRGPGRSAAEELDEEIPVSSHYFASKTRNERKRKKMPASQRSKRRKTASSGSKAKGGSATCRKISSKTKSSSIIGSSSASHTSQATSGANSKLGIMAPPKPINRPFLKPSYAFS
The target of series [2] is T1, BLM642-1290. In words: fluorescence anisotropy; 0.5 mM NEM, 2 mM DTT, no Cd2+; 50 mM Tris-HCl pH 8.0, 50 mM NaCl, 1 mM DTT, 25 C; 200 nM protein, 5 nM 3'-fluorescein DNA. The conditions noted are these: protein: recombinant; label: 3'-fluorescein.

With GCCCTGCTGCCGACCAACGAAGGT (ssDNA) [F-24 ss], the IC50 with RecQ E. coli was 40.2 µM; in the series with BLM642-1290 [1] it was 10.2 µM; with BLM full-length, 6.63 µM.

With GCCTCGCTGCCGTCGCCA (ssDNA) [F-18], the binding result with BLM642-1290 [2] is listed as “binds”.

As to GCCCTGCTGCCGACCAACGATGGTTACATTCCCGCTGCTG (ssDNA) [F-40], the half-maximal inhibitory concentration (IC50) with RecQ E. coli stood at 39.2 µM; in the series with BLM642-1290 [1], 9.98 µM; in the series with BLM full-length it was 6.64 µM.
